Columns and labels:
[1] = set-up: species or system human; settings: in vivo
Experimental: Radiation dosimetry estimates for normal organs were determined for copper Cu-64 PSMA I&T based on biodistribution collected from the 12 patients enrolled in the trial. Whole-body PET/CT images acquired at 1 hour (±15 minutes), 4 hours (±30 minutes), and 24 hours (±2.0 hours) post injection were used together with blood samples collected prior to and 1, 2, 4, and 24 hours post injection and total voided urine samples collected for 0 to 1-hour and 1 to 4-hour intervals post injection.
This analysis was performed with the objective of estimation of radiation dosimetry of Cu-64 PSMA I&T based on bio-distribution determined using PET image data collected in twelve human subjects. […] The maximum deviation was 13%. Activities were normalized to 100% based on the first imaging time to prevent over or under estimation of absorbed dose.
Third, calculating Source Organ Time-Activity Bio-Kinetic Modeling using bio-distribution data for the listed organs utilizing the following Equation Three: […]
The bio-distribution data for the listed organs and remainder tissues in the study may be determined using the image quantification methodology described above. Organ and tissue data may be decay corrected to fit in a least squares sense using non-linear regression with sums of exponentials of the form shown in Equation Three.

[2] = Phase 1 independent reader assessment of image quality (lesion evaluation and general) of 5, 7, 9 mCi scans; format: in vivo, human; settings: for Lesion evaluation Image Quality Score (Mean [SD]) / Number of Lesions visible: 4-hour scans
Experimental: The Phase 1 portion of the study included a total of 12 patients with biochemical, recurrent PC after prostatectomy or radiation therapy. Patients were randomized into 3 groups of 4 patients. Patients in a given group received a single intravenous dose of 5, 7, or 9 mCi (±10%) of copper Cu-64 PSMA I&T. Whole-body PET/CT images were acquired at 1 hour (±15 minutes), 4 hours (±30 minutes), and 24 hours (±2.0 hours) post injection.
The 1-hour and 4-hour PET/CT images were evaluated independently by 3 readers blinded to all patient information, dose administration, and times of acquisition to assess the quality of the images (24 PET/CT image sets total). In addition, readers performed all assessments in one sitting with images scrambled such that the 1- and 4-hour imaging from the same patient was […]. The imaging protocol, scanner qualification, and imaging time/bed position were identical at 1, 4 and 24 hours and kept constant regardless of dose. The assessments were used together with dose reduction modeling to determine an acceptable dose to be administered for the Phase 2 portion of the study defined as the lowest copper Cu-64 PSMA I&T dose that yielded the most clinically relevant diagnostic image quality based on expert consensus review of all measurements and overall image quality.

[3] = set-up: species or system human; settings: in vivo; remark: listed apart in the source
Experimental: Safety was assessed in all patients following administration of copper Cu-64 PSMA I&T injection through collection of AE reporting, laboratory assessments, vital signs, and ECG. The Phase 2 portion assessed safety after copper Cu-64 PSMA I&T injection through collection of AEs 24 hours post-injection, lab assessments, vital signs, and ECGs.

O=C(O)CC[C@H](NC(=O)N[C@@H](CCCCNC(=O)CCCCCCC(=O)NCCCC[C@@H](NC(=O)[C@@H](Cc1ccccc1)NC(=O)[C@@H](Cc1ccc(O)c(I)c1)NC(=O)CC[C@H](C(=O)O)N1CCN(CC(=O)O)CCN(CC(=O)O)CCN(CC(=O)O)CC1)C(=O)O)C(=O)O)C(=O)O [Cu-64 PSMA I&T, 64 Cu-(3S, 7S, 26R, 29R, 32R, 37R)-29-benzyl-32(4-hydroxy-3-iodobenzyl)-5, 13, 20, 28, 31, 34-hexaoxo-37-(4,7,10-tris(carboxymethyl)-1,4,7, 10-tetraazacyclododecan-1-yl)-4,6, 12, 21, 27, 30, 33-heptaazaheptatriacontane-1,3,7, 26, 37-pentacarboxylic acid, metal not drawn]
Normalized Number of Disintegrations, Mean, Remainder ([1]; human): 6.9 h | Dose Estimate, Mean, Adrenals [1]: 0.045 mGy/MBq | Dose Estimate, Mean, Brain [1]: 0.011 mGy/MBq | Dose Estimate, Mean, Esophagus [1]: 0.020 mGy/MBq | Dose Estimate, Mean, Eyes [1]: 0.010 mGy/MBq | Dose Estimate, Mean, Gallbladder Wall [1]: 0.051 mGy/MBq | Dose Estimate, Mean, Heart Wall [1]: 0.055 mGy/MBq | Dose Estimate, Mean, Kidneys [1]: 0.19 mGy/MBq | Dose Estimate, Mean, Lacrimal Glands [1]: 0.16 mGy/MBq | Dose Estimate, Mean, Left colon [1]: 0.25 mGy/MBq | Dose Estimate, Mean, Liver [1]: 0.25 mGy/MBq | Dose Estimate, Mean, Lungs [1]: 0.018 mGy/MBq | Dose Estimate, Mean, Osteogenic Cells [1]: 0.018 mGy/MBq | Dose Estimate, Mean, Pancreas [1]: 0.054 mGy/MBq | Dose Estimate, Mean, Pituitary [1]: 0.037 mGy/MBq | Dose Estimate, Mean, Prostate [1]: 0.027 mGy/MBq | Dose Estimate, Mean, Rectum [1]: 0.15 mGy/MBq | Dose Estimate, Mean, Red Marrow [1]: 0.023 mGy/MBq | Dose Estimate, Mean, Right colon [1]: 0.22 mGy/MBq | Dose Estimate, Mean, Salivary Glands [1]: 0.12 mGy/MBq | Dose Estimate, Mean, Small Intestine [1]: 0.067 mGy/MBq | Dose Estimate, Mean, Spleen [1]: 0.048 mGy/MBq | Dose Estimate, Mean, Stomach Wall [1]: 0.063 mGy/MBq | Dose Estimate, Mean, Testes [1]: 0.035 mGy/MBq | Dose Estimate, Mean, Thymus [1]: 0.015 mGy/MBq | Dose Estimate, Mean, Thyroid [1]: 0.015 mGy/MBq | Dose Estimate, Mean, Total Body [1]: 0.022 mGy/MBq | Dose Estimate, Mean, Urinary Bladder Wall [1]: 0.074 mGy/MBq | Normalized Number of Disintegrations, Mean, Heart wall [1]: 0.17 h | Normalized Number of Disintegrations, Mean, Kidneys [1]: 0.69 h | Normalized Number of Disintegrations, Mean, Lacrimal Glands [1]: 0.0033 h | Normalized Number of Disintegrations, Mean, Liver [1]: 5.0 h | Normalized Number of Disintegrations, Mean, Pancreas [1]: 0.058 h | Normalized Number of Disintegrations, Mean, Pituitary [1]: 0.00033 h | Normalized Number of Disintegrations, Mean, Prostate [1]: 0.0047 h | Normalized Number of Disintegrations, Mean, Red Marrow [1]: 0.28 h | Normalized Number of Disintegrations, Mean, Salivary glands [1]: 0.12 h | Normalized Number of Disintegrations, Mean, Spleen [1]: 0.096 h | Normalized Number of Disintegrations, Mean, Stomach Wall [1]: 0.083 h | Normalized Number of Disintegrations, Mean, Testes [1]: 0.015 h | Normalized Number of Disintegrations, Mean, Thyroid [1]: 0.0035 h | Normalized Number of Disintegrations, Mean, Whole Body [1]: 15 h | Average general image quality across timepoints ([2]; 5 mCi (n = 4)): 1.63 (0.58) | Average general image quality across timepoints ([2]; 7 mCi (n = 4)): 1.58 (0.58) | Average general image quality across timepoints ([2]; 9 mCi): 1.71 (0.46) | Lesion evaluation Image Quality Score (Mean [SD]) ([2]; Reader 1, 5 mCi): 2.00 (0.00) | Number of Lesions visible ([2]; Reader 1, 5 mCi): 19 | Lesion evaluation Image Quality Score (Mean [SD]) ([2]; Reader 1, 7 mCi): 2.00 (0.00) | Number of Lesions visible ([2]; Reader 1, 7 mCi): 15 | Lesion evaluation Image Quality Score (Mean [SD]) ([2]; Reader 1, 9 mCi): 2.00 (0.00) | Number of Lesions visible ([2]; Reader 1, 9 mCi): 12 | General Image Quality score (Mean [SD]) ([2]; Reader 1, 1 hour, 5 mCi (n = 4)): 2.00 (0.00) | General Image Quality score (Mean [SD]) ([2]; Reader 1, 1 hour, 7 mCi (n = 4)): 2.00 (0.00) | General Image Quality score (Mean [SD]) ([2]; Reader 1, 1 hour, 9 mCi): 1.75 (0.50) | General Image Quality score (Mean [SD]) ([2]; Reader 1, 4 hours, 5 mCi (n = 4)): 1.75 (0.50) | General Image Quality score (Mean [SD]) ([2]; Reader 1, 4 hours, 7 mCi (n = 4)): 2.00 (0.00) | General Image Quality score (Mean [SD]) ([2]; Reader 1, 4 hours, 9 mCi): 1.75 (0.50) | Lesion evaluation Image Quality Score (Mean [SD]) ([2]; Reader 2, 5 mCi): 2.00 (0.00) | Number of Lesions visible ([2]; Reader 2, 5 mCi): 17 | Lesion evaluation Image Quality Score (Mean [SD]) ([2]; Reader 2, 7 mCi): 1.77 (0.44) | Number of Lesions visible ([2]; Reader 2, 7 mCi): 13 | Lesion evaluation Image Quality Score (Mean [SD]) ([2]; Reader 2, 9 mCi): 2.00 (0.00) | Number of Lesions visible ([2]; Reader 2, 9 mCi): 13 | General Image Quality score (Mean [SD]) ([2]; Reader 2, 1 hour, 5 mCi (n = 4)): 2.00 (0.00) | General Image Quality score (Mean [SD]) ([2]; Reader 2, 1 hour, 7 mCi (n = 4)): 1.00 (0.82) | General Image Quality score (Mean [SD]) ([2]; Reader 2, 1 hour, 9 mCi): 1.75 (0.50) | General Image Quality score (Mean [SD]) ([2]; Reader 2, 4 hours, 5 mCi (n = 4)): 2.00 (0.00) | General Image Quality score (Mean [SD]) ([2]; Reader 2, 4 hours, 7 mCi (n = 4)): 1.50 (0.58) | General Image Quality score (Mean [SD]) ([2]; Reader 2, 4 hours, 9 mCi): 2.00 (0.00) | Number of Lesions visible ([2]; Reader 3, 5 mCi): 19 | Number of Lesions visible ([2]; Reader 3, 7 mCi): 12 | Lesion evaluation Image Quality Score (Mean [SD]) ([2]; Reader 3, 9 mCi): 1.85 (0.38) | Number of Lesions visible ([2]; Reader 3, 9 mCi): 13 | General Image Quality score (Mean [SD]) ([2]; Reader 3, 1 hour, 5 mCi (n = 4)): 1.00 (0.00) | General Image Quality score (Mean [SD]) ([2]; Reader 3, 1 hour, 7 mCi (n = 4)): 1.25 (0.50) | General Image Quality score (Mean [SD]) ([2]; Reader 3, 1 hour, 9 mCi): 1.50 (0.58) | General Image Quality score (Mean [SD]) ([2]; Reader 3, 4 hours, 5 mCi (n = 4)): 1.00 (0.82) | General Image Quality score (Mean [SD]) ([2]; Reader 3, 4 hours, 7 mCi (n = 4)): 1.75 (0.50) | General Image Quality score (Mean [SD]) ([2]; Reader 3, 4 hours, 9 mCi): 1.50 (0.58) | QIQS (general image quality), lowest score ([2]; at 4 hours, 5, 7 and 9 mCi, all readers): ≥ 1.00 | patients who experienced at least 1 AE [3]: 2 | relationship of the adverse events to study product [3]: not related | serious adverse events attributed to the injection [3]: No serious adverse events | seriousness of the adverse events [3]: not serious | severity of the adverse events [3]: mild

Reference: patent publication US20250049972A1, “METHOD OF DETECTING PROSTATE CANCER IN A HUMAN SUBJECT USING A Cu 64 PSMA I&T INJECTION” (Curium US LLC, priority 2023, published 2025)
